Measurements taken from patent US20140087995A1 (published 2014).
Bridge positions count the residues as written; N and C are the ends. Side chains are listed from the residue outwards. Ends that are not written are not given here. * marks the point of attachment. C20 diacid = O=C(O)CCCCCCCCCCCCCCCCCCC(=O)*; AEEA = NCCOCCOCC(=O)O

Columns and labels:
[1] = biological target: T1, rat calcitonin receptor (rat, UniProt P32214 25-516); assay: IC50 on rat CTR divided by IC50 on rat amylin receptor (Assays VIII/VI)
T1 construct: whole, on cells; Used as membranes prepared from BHK tk'ts 13 cells transiently transfected with the rat calcitonin receptor (Assay VIII); also called rCTR; rat calcitonin (a) receptor
T1 sequence (looked up): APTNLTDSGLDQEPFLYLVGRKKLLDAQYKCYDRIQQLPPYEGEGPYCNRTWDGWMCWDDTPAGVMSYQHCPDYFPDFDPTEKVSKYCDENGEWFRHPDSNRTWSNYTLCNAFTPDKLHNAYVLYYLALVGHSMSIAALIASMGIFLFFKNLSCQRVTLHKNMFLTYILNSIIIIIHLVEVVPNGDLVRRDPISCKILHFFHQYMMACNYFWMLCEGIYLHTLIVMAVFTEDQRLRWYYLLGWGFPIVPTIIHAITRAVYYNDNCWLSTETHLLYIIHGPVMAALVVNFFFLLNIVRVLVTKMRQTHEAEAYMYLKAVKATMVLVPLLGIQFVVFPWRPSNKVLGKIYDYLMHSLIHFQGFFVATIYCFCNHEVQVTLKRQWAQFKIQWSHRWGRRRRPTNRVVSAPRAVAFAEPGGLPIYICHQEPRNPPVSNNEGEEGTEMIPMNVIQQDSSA

[2] = biological target: T2, human calcitonin receptor (human, UniProt P30988 25-474); assay: IC50 on human CTR divided by IC50 on human amylin receptor (Assays VII/V)
T2 construct: whole, on cells; Used as membranes prepared from a BHK tk'ts 13 cell line stably transfected with the human calcitonin receptor (Assay VII); also called hCTR; hCT
T2 sequence (looked up): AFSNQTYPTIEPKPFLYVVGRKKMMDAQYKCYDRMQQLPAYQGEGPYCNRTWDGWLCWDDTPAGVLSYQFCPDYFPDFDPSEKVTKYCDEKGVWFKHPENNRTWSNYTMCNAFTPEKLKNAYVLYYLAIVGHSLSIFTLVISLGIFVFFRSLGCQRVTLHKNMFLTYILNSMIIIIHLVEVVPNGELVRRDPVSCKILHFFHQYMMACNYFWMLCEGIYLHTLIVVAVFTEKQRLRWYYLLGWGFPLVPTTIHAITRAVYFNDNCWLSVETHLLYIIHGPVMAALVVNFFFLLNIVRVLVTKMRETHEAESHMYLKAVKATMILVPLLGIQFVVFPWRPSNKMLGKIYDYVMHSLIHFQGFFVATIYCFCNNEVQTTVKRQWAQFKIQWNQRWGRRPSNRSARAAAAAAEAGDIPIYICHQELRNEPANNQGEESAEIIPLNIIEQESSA
Procedure: The resulting pellet was resuspended, homogenized and centrifuged (20.000 rpm, 15 min) in a buffer containing 20 mM Na-HEPES and 0.1 mM EDTA (pH 7.4, buffer 2). The resulting pellet was resuspended in buffer 2 and protein concentration was measured (BCA protein Assay, Pierce). The homogenate was kept cold during the whole procedure. The membranes were kept at −80° C. until use. The assay was performed in a 384 well Optiplate (PerkinElmer) in a total volume of 40 ul. Membranes were mixed with SPA beads. Final concentration of membranes 35 ng/μL final and SPA beads was 0.05 mg/well. Test-compounds were dissolved in DMSO and further diluted in assay buffer (50 mM Hepes, pH 7.4, 1 mM CaCl2, 5 mM MgCl₂, 0.1% OA and 0.02% Tween20). […] The final mixture was incubated with shaking at 400 rpm for 120 min at 25° C. prior to centrifugation (1500 rpm, 10 min). Samples were analyzed on TopCounter™ (Packard). The IC₅₀ was calculated using (one site binding competition analysis) GraphPad Prism5 as a measure of receptor affinity.
Membranes were prepared in the following way; the cells were rinsed with PBS and incubated with Versene for approximately 5 min before harvesting. The cells were flushed with PBS and the cell-suspension was centrifuged for 5 min at 1000 rpm. Cells were homogenized (Ultrathurrax) in a buffer containing 20 mM Na-HEPES and 10 mM EDTA (pH 7.4) and centrifuged at 20.000 rpm for 15 min. The resulting pellet was resuspended, homogenized and centrifuged (20.000 rpm, 15 min) in a buffer containing 20 mM Na-HEPES and 0.1 mM EDTA (pH 7.4, buffer 2). The resulting pellet was resuspended in buffer 2 and protein concentration was measured (BCA protein Assay, Pierce). The homogenate was kept cold during the whole procedure. The membranes were kept at −80° C. until use. Assay was performed in a 384 well Optiplate (PerkinElmer) in a total volume of 40 ul. Membranes were mixed with SPA beads.

[3] = biological target: T1, rat calcitonin receptor; assay: SPA competition with 125I-calcitonin, membranes of BHK cells with rat CTR (Assay VIII)
[4] = biological target: T3, rat amylin receptor (rat calcitonin receptor + rat RAMP 3) (rat, UniProt P32214 25-516; Q9JJ73 23-147); assay: SPA competition with 125I-rat amylin, membranes of BHK cells with rat CTR + rat RAMP3 (Assay VI)
T3 construct: whole, on cells; Used as membranes prepared from BHK tk'ts 13 cells transiently transfected with rat calcitonin receptor and rat RAMP 3 (Assay VI); also called rAmylin-R; rat amylin 3(a) receptor
T3 sequence (looked up) 1: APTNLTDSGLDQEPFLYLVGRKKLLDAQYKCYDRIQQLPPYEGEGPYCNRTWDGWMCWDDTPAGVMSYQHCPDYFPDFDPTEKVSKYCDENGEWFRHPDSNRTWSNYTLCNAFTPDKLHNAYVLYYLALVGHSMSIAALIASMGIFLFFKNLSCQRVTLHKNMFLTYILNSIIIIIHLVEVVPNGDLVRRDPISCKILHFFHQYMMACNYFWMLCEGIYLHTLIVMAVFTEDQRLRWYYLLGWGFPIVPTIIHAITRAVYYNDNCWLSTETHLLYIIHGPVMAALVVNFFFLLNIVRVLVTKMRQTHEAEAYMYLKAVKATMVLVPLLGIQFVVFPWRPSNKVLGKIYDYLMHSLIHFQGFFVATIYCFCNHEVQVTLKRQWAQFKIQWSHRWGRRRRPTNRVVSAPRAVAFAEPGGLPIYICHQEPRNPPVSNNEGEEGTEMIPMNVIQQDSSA
T3 sequence (looked up) 2: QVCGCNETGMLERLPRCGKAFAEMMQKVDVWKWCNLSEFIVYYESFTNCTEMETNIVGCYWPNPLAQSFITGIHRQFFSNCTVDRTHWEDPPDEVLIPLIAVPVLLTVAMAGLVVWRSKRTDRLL
Procedure: The binding assay was performed using scintillation proximity assay (SPA) beads (RPNQ0001) from PerkinElmer and cell membranes from the Amylin 3(a)/CRE-luc cells (as described in Assay (II)) were used. Membranes were prepared in the following way; the cells were rinsed with PBS and incubated with Versene for approximately 5 min before harvesting. The cells were flushed with PBS and the cell-suspension was centrifuged for 5 min at 1000 rpm. Cells were homogenized (ultrathurrax) in a buffer containing 20 mM Na-HEPES and 10 mM EDTA (pH 7.4) and centrifuged at 20.000 rpm for 15 min. The resulting pellet was resuspended, homogenized and centrifuged (20.000 rpm, 15 min) in a buffer containing 20 mM Na-HEPES and 0.1 mM EDTA (pH 7.4, buffer 2). The resulting pellet was resuspended in buffer 2 and protein concentration was measured (BCA protein Assay, Pierce). The homogenate was kept cold during the whole procedure. The membranes were kept at −80° C. until use. The assay was performed in a 384 well Optiplate (PerkinElmer) in a total volume of 40 ul. Membranes were mixed with SPA beads. Final concentration of membranes 35 ng/μL final and SPA beads was 0.05 mg/well. Test-compounds were dissolved in DMSO and further diluted in assay buffer (50 mM Hepes, pH 7.4, 1 mM CaCl2, 5 mM MgCl₂, 0.1% OA and 0.02% Tween20). […] The final mixture was incubated with shaking at 400 rpm for 120 min at 25° C. prior to centrifugation (1500 rpm, 10 min). Samples were analyzed on TopCounter™ (Packard). The IC₅₀ was calculated using (one site binding competition analysis) GraphPad Prism5 as a measure of receptor affinity.
Cells were grown in DMEM with 10% FBS and 1% Pen/Strep. Approximately 48 hours after transfection, the cells were harvested and membranes were prepared.

- Ratio rCT/rAmylin binding [1]: 69.1
- Ratio hCT/hAmylin binding [2]: 34.7
- IC50 [3]: 7.6 nM
- IC50 [4]: 0.11 nM
B1: N^ε1-[2-[2-[2-(19-carboxynonadecanoylamino)ethoxy]ethoxy]acetyl]-[Arg17,Pro21,Pro27]-h-amylin (peptide)
peptide: K([AEEA-C20 diacid])CNTATCATQRLANFLRHSSPNFGAIPSSTNVGSNTY-NH2
modifications: disulfide 2-7; N-terminus assumed
SMILES: CC[C@H](C)[C@H](NC(=O)[C@H](C)NC(=O)CNC(=O)[C@H](Cc1ccccc1)NC(=O)[C@H](CC(N)=O)NC(=O)[C@@H]1CCCN1C(=O)[C@H](CO)NC(=O)[C@H](CO)NC(=O)[C@H](Cc1c[nH]cn1)NC(=O)[C@H](CCCNC(=N)N)NC(=O)[C@H](CC(C)C)NC(=O)[C@H](Cc1ccccc1)NC(=O)[C@H](CC(N)=O)NC(=O)[C@H](C)NC(=O)[C@H](CC(C)C)NC(=O)[C@H](CCCNC(=N)N)NC(=O)[C@H](CCC(N)=O)NC(=O)[C@@H](NC(=O)[C@H](C)NC(=O)[C@@H]1CSSC[C@H](NC(=O)[C@@H](N)CCCCNC(=O)COCCOCCNC(=O)CCCCCCCCCCCCCCCCCCC(=O)O)C(=O)N[C@@H](CC(N)=O)C(=O)N[C@@H]([C@@H](C)O)C(=O)N[C@@H](C)C(=O)N[C@@H]([C@@H](C)O)C(=O)N1)[C@@H](C)O)C(=O)N1CCC[C@H]1C(=O)N[C@@H](CO)C(=O)N[C@@H](CO)C(=O)N[C@H](C(=O)N[C@@H](CC(N)=O)C(=O)N[C@H](C(=O)NCC(=O)N[C@@H](CO)C(=O)N[C@@H](CC(N)=O)C(=O)N[C@H](C(=O)N[C@@H](Cc1ccc(O)cc1)C(N)=O)[C@@H](C)O)C(C)C)[C@@H](C)O
notes: Analogue of human amylin; also called compound 43
